Data from US20250283129A1, “PROCESS” (Sun Pharmaceutical Industries Australia Pty Limited, priority 2021, published 2025).
Numbering of substitutions follows the chain as printed. Names may count otherwise. Like-named read-outs stand apart in the source and are kept apart here.

Columns and labels:
thebaine = test: Whole cell biotransformation of thebaine to oripavine by E. coli cells expressing CODM variants; type: cell-based; conditions: for average thebaine to oripavine yield: FIG. 5; for oripavine yield improved relative to WT CODM: oripavine yield assayed after 4 hours
codeine = test: Whole cell biotransformation of codeine to morphine by E. coli cells expressing CODM variants; type: cell-based; conditions: for average codeine to morphine yield: FIG. 5, morphine assayed after 30 minutes per legend; for morphine yield improved relative to WT CODM: morphine yield assayed after 30 minutes; for speed of biotransformation with codeine as substrate (in words): time course over two hours; for yield of morphine: time course, after one hour
[1] = morphine after 30 minutes, oripavine after 4 hours

B1: 17M: codeine 3-O-demethylase with amino acid substitution I7M (protein, listed as Papaver somniferum)
chain: METPILMKLGNGLSIPSVQELAKLTLAEIPSRYTCTGESPLNNIGASVTDDETVPVIDLQNLLSPEPVVGKLELDKLHSACKEWGFFQLVNHGVDALLMDNIKSEIKGFFNLPMNEKTKYGQQDGDFEGFGQPYIESEDQRLDWTEVFSMLSLPLHLRKPHLFPELPLPFRETLESYLSKMKKLSTVVFEMLEKSLQLVEIKGMTDLFEDGLQTMRMNYYPPCPRPELVLGLTSHSDFSGLTILLQLNEVEGLQIRKEERWISIKPLPDAFIVNVGDILEIMTNGIYRSVEHRAVVNSTKERLSIATFHDSKLESEIGPISSLVTPETPALFKRGRYEDILKENLSRKLDGKSFLDYMRM
thebaine; after 4 hours
  average thebaine to oripavine yield: 6%
codeine
  average codeine to morphine yield: 32%

B2: WT CODM: wild type codeine 3-O-demethylase (UniProtKB: D4N502), N-terminally fused to 6H and MBP, expressed in E. coli (protein, UniProt D4N502 1-360, looked up)
Codeine O-demethylase: B1 chain with M7I
modifications: N-terminal His6-MBP fusion
notes: wild type codeine 3-O-demethylase (UniProtKB: D4N502), N-terminally fused to 6H and MBP, expressed in E. coli
thebaine; after 4 hours
  average thebaine to oripavine yield: 47%
codeine
  average codeine to morphine yield: 47%

B3: E259D: codeine 3-O-demethylase with amino acid substitution E259D (protein, listed as Papaver somniferum)
chain: B1 chain with M7I, E259D
thebaine
  oripavine yield improved relative to WT CODM: ~38%
codeine
  morphine yield improved relative to WT CODM: ~30%

B4: E259G: codeine 3-O-demethylase with amino acid substitution E259G (protein, listed as Papaver somniferum)
chain: B1 chain with M7I, E259G
thebaine
  oripavine yield improved relative to WT CODM: ~27%
codeine
  morphine yield improved relative to WT CODM: ~24%

B5: R260T: codeine 3-O-demethylase with amino acid substitution R260T (protein, listed as Papaver somniferum)
chain: B1 chain with M7I, R260T
thebaine; after 4 hours
  less oripavine generated than WT CODM: ~29%
codeine; after 30 minutes
  less morphine generated than WT CODM: ~28%

B6: E259D+R260K: codeine 3-O-demethylase with amino acid substitutions E259D and R260K (protein, listed as Papaver somniferum)
chain: B1 chain with M7I, E259D, R260K
thebaine; [1]
  product yield / performance compared to WT CODM strain (in words): improved compared to the WT CODM stain

B7: E259G+R260K: codeine 3-O-demethylase with amino acid substitutions E259G and R260K (protein, listed as Papaver somniferum)
chain: B1 chain with M7I, E259G, R260K
thebaine
  product yield / performance compared to WT CODM strain (in words): improved compared to the WT CODM stain

B8: 15K: codeine 3-O-demethylase with amino acid substitution I5K (protein, listed as Papaver somniferum)
chain: B1 chain with I5K, M7I
thebaine
  oripavine yield improved relative to WT CODM: ~79%
codeine
  morphine yield improved relative to WT CODM: ~58%
  speed of biotransformation with codeine as substrate (in words): faster than the WT CODM control
  yield of morphine: ~94%

B9: M360I: codeine 3-O-demethylase with amino acid substitution M360I (protein, listed as Papaver somniferum)
chain: B1 chain with M7I, M360I
thebaine
  oripavine yield improved relative to WT CODM: ~33%
codeine
  morphine yield improved relative to WT CODM: ~29%
  speed of biotransformation with codeine as substrate (in words): faster than the WT CODM control but not as fast as the other two mutant strains

B10: T3K: codeine 3-O-demethylase with amino acid substitution T3K (protein, listed as Papaver somniferum)
chain: B1 chain with T3K, M7I
thebaine; [1]
  product yield / performance compared to WT CODM strain (in words): minor improvement in product yield

B11: P4A: codeine 3-O-demethylase with amino acid substitution P4A (protein, listed as Papaver somniferum)
chain: B1 chain with P4A, M7I
thebaine; [1]
  product yield / performance compared to WT CODM strain (in words): minor improvement in product yield

B12: 15K+M360I: codeine 3-O-demethylase with amino acid substitutions I5K and M360I (protein, listed as Papaver somniferum)
chain: B1 chain with I5K, M7I, M360I
thebaine; Example 4, oripavine measured after 2 hours
  increase in oripavine yield relative to the WT CODM strain: 2.76 ×
thebaine; time course over twenty-four hours
  speed of biotransformation with thebaine as substrate (in words): performed the fastest biotransformation
thebaine; time course, after ~five hours
  yield of thebaine to oripavine: ~95%
codeine; Example 4, morphine measured after 15 minutes
  increase in morphine yield relative to the WT CODM strain: 2.3 ×
codeine
  speed of biotransformation with codeine as substrate (in words): faster than the WT CODM control
  yield of morphine: ~94%
